This is an account of results in paper PMC10936212.

What is called stoichiometry N is the number of molecules, sites or subunits per partner or assembly. The term Kd denotes a measure of binding affinity in units of concentration.

The target in data set [1] is Campylobacter jejuni CosR regulator (Campylobacter jejuni). Put plainly: cryo-EM structure; single-particle cryo-EM of 20 uM CosR incubated 2 h with 10 uM 40 bp ds-DNA; the class of DNA-free particles (apo-CosR) sorted in silico (build and retrieve), 3.77 Å.
Data set [2] shares this target. Briefly: crystal structure; CosR (8 mg/mL) with 21 bp DNA1 duplex (2.6 mg/mL), vapor diffusion, Na-MES pH 6.5, 2.90 Å; the dimer is formed by a crystallographic symmetry operator.
For data set [3] the target is unchanged. Put plainly: crystal structure; CosR (320 uM) with 21 bp DNA2 duplex (192 uM), vapor diffusion, Na-MES pH 6.5, 2.20 Å.
The target of data set [4] is CosR (Campylobacter jejuni) (UniProt A0A3H9R6A1). Briefly: fluorescence polarization. Particulars: FP: 10 mM PBS pH 7.4, 5 nM fluoresceinated DNA, 1 ug poly(dI-dC), 25 C. On the technique in general: In fluorescence polarisation assays a small probe gives low polarisation when free and higher when bound to something large.

Consider “Campylobacter jejuni CosR regulator (natural protein)”, for which the stoichiometry N in data set [1], in data set [2] and in data set [3] was 2 in each case.

The substance “AATTAAGATATTATTAACCAA (double strand) [DNA2 (fluorescein)]” returned an equilibrium dissociation constant (Kd) in data set [4] of 2.5 nM. “TATTAACCAAAATTAAGATAT (double strand) [DNA1 (fluorescein)]”: the Kd in data set [4] amounted to 4.5 nM.
